The results in this text go back to the supplement of paper PMC10567573.

B1: LOXL2 (parent)
chain: YVEVKEGKTWKQICDKHWTAKNSR
B2: ZNF649 (parent)
chain: MTKAQESLTLEDVAVDFTWEEWQF
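Further: lentivirally expressed fusions sorted by FACS into six bins by GFP to DsRed ratio, PSI derived from sequencing read proportions per bin multiplied by bin number.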

The variants in the first series derive from B1. Description: protein stability index of a GFP-peptide fusion (GPS, HEK-293T) (PSI 1-6); higher = more stable. As to conditions: c terminus: a fixed tail appended.
In the case of YVEVKEGKTHKQICDKHWTAKNSR, the protein stability index is 2.44. For YVEVKEGKTFKQICDKHWTAKNSR, the protein stability index came to 2.47. The same measure, in the same setting: for YVEVKEGKTWKGICDKHWTAKNSR the value was 2.63. For the variant YVEVKEGKTWKQICDKHWHAKNSR, the protein stability index came out at 1.78.

Regarding YVEVKEEKTWKQICDKHWTAKNSR, the protein stability index amounted to 1.7.

Another series covers variants of B2. The description is as above. As to conditions: c terminus: a fixed tail appended.
As to MTKAQVSLTLEDVAVDFTWEEWQF, the protein stability index is 1.75. On the same count and under the same terms, for MTKAQKSLTLEDVAVDFTWEEWQF the value was 3.02; for MTKAQDSLTLEDVAVDFTWEEWQF, 3.14. In the case of MTKAQGSLTLEDVAVDFTWEEWQF, the protein stability index is 2.74. For the variant MTKAQLSLTLEDVAVDFTWEEWQF, the protein stability index came to 2.43. In the case of MTKAQISLTLEDVAVDFTWEEWQF, the protein stability index is 4.31. Still for that read-out and setting: for MTKAQHSLTLEDVAVDFTWEEWQF the value was 2.2; for MTKAQRSLTLEDVAVDFTWEEWQF, 2.88. For the variant MTKAQWSLTLEDVAVDFTWEEWQF, the protein stability index turned out to be 1.95. The same measure, in the same setting: under MTKAQNSLTLEDVAVDFTWEEWQF stands 2.88; under MTKAQESLTLEDVAVDFTWDEWQF, 3.14. On the same count and under the same terms, for MTKAQESLTLEDVAVDFTWMEWQF the value was 2.57; for MTKAQESLTLEDVAVDFTWPEWQF, 2.76. Regarding MTKAQESLTLEDVAVDFTWAEWQF, the protein stability index was 2.48. In the case of MTKAQESLTLEDVAVDFTWHEWQF, the protein stability index amounted to 2.22.

Take MTKAQESLTLEDVAVDFTWQEWQF: the protein stability index was determined as 2.32. On the same count and under the same terms, for MTKAQESLTLEDVAVDFTWVEWQF the value was 3.37. Same read-out and setting: under MTKAQESLTLEDVAVDFTWYEWQF stands 2. MTKAQESLTLEDVAWDFTWEEWQF: the protein stability index was determined as 2.59.

With MTKAQESLTLEDVANDFTWEEWQF, the protein stability index came to 3.87.

On to MTKAQESLTLEDVASDFTWEEWQF, for which the protein stability index is 3.35. Same read-out and setting: under MTKAQESLTLEDVAGDFTWEEWQF stands 4.07; under MTKAQESLTLEDVADDFTWEEWQF, 3.77; under MTKAQESLTLEDVAMDFTWEEWQF, 3.77.

Take MTKFQESLTLEDVAVDFTWEEWQF: the protein stability index was found to be 2.51.

For the variant MTKTQESLTLEDVAVDFTWEEWQF, the protein stability index was found to be 3.11. Same read-out and setting: under MTKMQESLTLEDVAVDFTWEEWQF stands 2.5. Take MTKPQESLTLEDVAVDFTWEEWQF: the protein stability index worked out at 3.75. Same read-out and setting: under MTKEQESLTLEDVAVDFTWEEWQF stands 3.66. On the same count and under the same terms, for MTKVQESLTLEDVAVDFTWEEWQF the value was 2.52. Same read-out and setting: under MTKLQESLTLEDVAVDFTWEEWQF stands 3.71. MTKAQESATLEDVAVDFTWEEWQF: the protein stability index came out at 4.22. Still for that read-out and setting: for MTKAQESCTLEDVAVDFTWEEWQF the value was 3.42; for MTRAQESLTLEDVAVDFTWEEWQF, 3.12; for MTEAQESLTLEDVAVDFTWEEWQF, 4.29. On the same count and under the same terms, under MTFAQESLTLEDVAVDFTWEEWQF stands 2.17.

MTVAQESLTLEDVAVDFTWEEWQF: the protein stability index is 3.23. Same read-out and setting: for MTDAQESLTLEDVAVDFTWEEWQF the value was 3.63. Take MTYAQESLTLEDVAVDFTWEEWQF: the protein stability index was found to be 2.64. On the same count and under the same terms, under MTQAQESLTLEDVAVDFTWEEWQF stands 2.98; under MTPAQESLTLEDVAVDFTWEEWQF, 3.33. In the case of MTMAQESLTLEDVAVDFTWEEWQF, the protein stability index came out at 2.64. The same measure, in the same setting: for MTKAQESLTLEDVAVDETWEEWQF the value was 5.01; for MTKAQESLTLEDVAVDHTWEEWQF, 3.94; for MTKAQESLTLEDVAVDATWEEWQF, 4.42.

MTKAQESLTLEDVAVDWTWEEWQF: the protein stability index was 3.31. Turning to MTKAQESLTLEDVAVDCTWEEWQF, the protein stability index is 4.1.

With MTKAQESLTLEDVAVDQTWEEWQF, the protein stability index stood at 4.51.

For the variant MTKAQESLPLEDVAVDFTWEEWQF, the protein stability index stood at 4.17. Still for that read-out and setting: under MTKAQESLLLEDVAVDFTWEEWQF stands 2.54. Same read-out and setting: under MTKAQESLQLEDVAVDFTWEEWQF stands 3.58. On to MTKAQESLWLEDVAVDFTWEEWQF, for which the protein stability index turned out to be 2.54. As to MTKAQESLNLEDVAVDFTWEEWQF, the protein stability index was found to be 4.28.

As for MTKAQESLGLEDVAVDFTWEEWQF, the protein stability index was found to be 3.49. Take MTKAQESLFLEDVAVDFTWEEWQF: the protein stability index came to 3.35. With MTKAQESLKLEDVAVDFTWEEWQF, the protein stability index was found to be 3.38. The same measure, in the same setting: under MTKAQESLTLEDVAVDFTWERWQF stands 3.17; under MTKAQESLTLEDVAVDFTWELWQF, 1.23; under MTKAQESLTLEDVAVDFTWEAWQF, 2.12. Still for that read-out and setting: for MTKAQESLTLEDVAVDFTWENWQF the value was 1.54. Same read-out and setting: under MTKAQESLTLEDVAVDFTWEPWQF stands 1.89. For the variant MTKAQESLTLEDVAVDFTWEGWQF, the protein stability index came out at 1.49. For the variant MTKAQESLTLEDVAVDFTNEEWQF, the protein stability index was 4.37.

Take MTKAQESLTLEDVAVDFTEEEWQF: the protein stability index is 4.66.

As to MTKAQESLTLEDVAVDFTKEEWQF, the protein stability index turned out to be 3.58.

Consider MTKAQESLTLEDVAVDFTPEEWQF, for which the protein stability index came to 4.43. Consider MTKAQESLTLEDVAVDFTYEEWQF, for which the protein stability index was determined as 3.61. On the same count and under the same terms, under MTKAQESLTLEDVAVDFTAEEWQF stands 4.51. For MTKAQESLTLEDVAVDFTSEEWQF, the protein stability index came to 4.29. On to MTKAQESLTLEDVAVDFTLEEWQF, for which the protein stability index came out at 3. For the variant MTKATESLTLEDVAVDFTWEEWQF, the protein stability index stood at 3.04. On the same count and under the same terms, for MTKAKESLTLEDVAVDFTWEEWQF the value was 2.83; for MTKAMESLTLEDVAVDFTWEEWQF, 2.92; for MTKAFESLTLEDVAVDFTWEEWQF, 3.12. Regarding MTKAAESLTLEDVAVDFTWEEWQF, the protein stability index is 3.02. Turning to MTKAPESLTLEDVAVDFTWEEWQF, the protein stability index came out at 3.04. On to MSKAQESLTLEDVAVDFTWEEWQF, for which the protein stability index amounted to 2.55.

Regarding MAKAQESLTLEDVAVDFTWEEWQF, the protein stability index was determined as 3.09. Still for that read-out and setting: for MEKAQESLTLEDVAVDFTWEEWQF the value was 3.94; for MNKAQESLTLEDVAVDFTWEEWQF, 3.62. For MVKAQESLTLEDVAVDFTWEEWQF, the protein stability index is 2.64. The same measure, in the same setting: for MFKAQESLTLEDVAVDFTWEEWQF the value was 2.66. With MKKAQESLTLEDVAVDFTWEEWQF, the protein stability index is 3.77. Same read-out and setting: under MRKAQESLTLEDVAVDFTWEEWQF stands 2.72; under MTKAQESLTLADVAVDFTWEEWQF, 2.39.

Consider MTKAQESLTLVDVAVDFTWEEWQF, for which the protein stability index came out at 1.43.

Consider MTKAQESLTLNDVAVDFTWEEWQF, for which the protein stability index amounted to 3.28.

On to MTKAQESLTLDDVAVDFTWEEWQF, for which the protein stability index is 3.57. Consider MTKAQESLTLMDVAVDFTWEEWQF, for which the protein stability index was found to be 2.14.
